# Test results as given in PMC3164632.
# Biological target: West Nile virus envelope (E) protein (West Nile virus)
substance,measurement,value
Aedes aegypti pupal cuticle (PC) protein (AAEL011045) (natural protein),"survival of mice injected i.p. with WNV pre-incubated with PC protein for an hour at 37°C (against WNV alone, all of which died within 14 days p.i.)",60%
